Measurements from article PMC3057456.

Test system: LUX ARRHYTHMO (LUX/PCL1) (Arabidopsis)
Test: protein binding microarray
Settings: not stated in the material

**Q.** How did the binding signal (PBM E-score (-0.5 to 0.5)) turn out when PBM top-ranked 8-mer AGATACGC was run?
**A.** 0.487
